Laboratory results reported in patent US20260049134A1 (UNIVERSITY OF FLORIDA RESEARCH FOUNDATION, published 2026).
Numbering of substitutions follows the chain as printed. Names may count otherwise.

T1: GARS, endogenous in H929 multiple myeloma cells (human, UniProt P41250 37-739, limits assumed)
T1 construct: Native protein pulled down from H929 lysates; also called Glycyl-tRNA synthetase; GlyRS
T1 sequence: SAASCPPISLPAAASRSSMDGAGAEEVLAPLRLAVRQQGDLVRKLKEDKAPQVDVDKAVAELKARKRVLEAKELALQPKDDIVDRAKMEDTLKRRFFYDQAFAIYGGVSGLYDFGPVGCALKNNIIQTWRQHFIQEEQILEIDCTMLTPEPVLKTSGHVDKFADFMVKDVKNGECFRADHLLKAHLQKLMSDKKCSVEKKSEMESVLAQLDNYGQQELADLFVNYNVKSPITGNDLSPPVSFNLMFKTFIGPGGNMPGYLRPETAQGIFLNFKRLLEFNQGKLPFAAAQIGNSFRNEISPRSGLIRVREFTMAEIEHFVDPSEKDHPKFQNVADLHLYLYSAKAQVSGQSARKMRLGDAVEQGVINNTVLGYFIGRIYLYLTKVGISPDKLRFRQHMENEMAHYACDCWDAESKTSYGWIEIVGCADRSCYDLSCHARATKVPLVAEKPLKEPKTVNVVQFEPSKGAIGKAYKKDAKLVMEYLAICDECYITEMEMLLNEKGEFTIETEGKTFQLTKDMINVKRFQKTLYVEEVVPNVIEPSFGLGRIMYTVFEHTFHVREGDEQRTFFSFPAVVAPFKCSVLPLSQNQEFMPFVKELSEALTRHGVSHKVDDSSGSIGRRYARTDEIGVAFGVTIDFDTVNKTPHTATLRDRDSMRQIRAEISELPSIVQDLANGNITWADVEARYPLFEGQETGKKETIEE

T2: IL13RA1
T2 construct: coated protein in the ELISA; also called IL13RA1-Fc-His (R&D Systems)
T2 chain: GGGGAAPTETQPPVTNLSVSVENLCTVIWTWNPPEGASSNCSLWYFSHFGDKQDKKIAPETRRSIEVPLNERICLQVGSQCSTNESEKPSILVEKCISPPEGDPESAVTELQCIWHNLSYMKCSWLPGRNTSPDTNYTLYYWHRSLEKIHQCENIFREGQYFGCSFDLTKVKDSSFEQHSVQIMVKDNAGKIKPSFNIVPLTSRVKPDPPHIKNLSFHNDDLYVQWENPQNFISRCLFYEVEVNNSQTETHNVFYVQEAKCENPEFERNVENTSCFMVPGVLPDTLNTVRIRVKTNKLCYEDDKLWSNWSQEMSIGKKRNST

B1: HW-8 chimeric rabbit-human IgG1 LA/LA/PG (antibody, V domains shown)
VH: QSLEESGGRLVTPGTPLTLTCTVSGFSLSSYAMSWVRQAPGKGLEWIGAISTGGSTTYASWAKGRFTISKTSSTTVDLKMTSLTTEDTATYFCVRHFRLWGPGTLVTISS
VL: QVLTQTPSSVSAAVGGTVTIKCQASQSIGSALAWFQQKPGQRPKLLIYRASNLASGVPSRFKGSGSGTEFALTISGVQREDAATYYCLGGAAAVWAFGAGTNVEIKR
notes: Fc-silenced (L234A/L235A/P329G) IgG1, kappa; Alexa Fluor 647-labeled in single-step flow cytometry; Cluster C-45
B2: HW-28 chimeric rabbit-human IgG1 LA/LA/PG (antibody, V domains shown)
VH: QKQLVESGGRLVTPGTPLTLTCTASGFSLSSNAMSWVRQAPGEGLQWIGTISSGGSTYYASWAKGRFTISKTSTTVTLKMTSLTTEDTATYFCARGADLHRLWGPGTLVTVSS
VL: SFVLTQPASVQVNLGQTVSLTCTGKPLSRSFASWYQQKPGQAPVLVIYRDTSRPSGVPDRFSGSSSGNTATLTISGAQAGDEADYYCATSDGSGSSYQYVFGGGTQLTVTG
notes: Fc-silenced (L234A/L235A/P329G) IgG1, lambda; Alexa Fluor 647-labeled in single-step flow cytometry; Cluster C-45
B3: HW-45 chimeric rabbit-human IgG1 LA/LA/PG (antibody, V domains shown)
VH: QKQLVESGGRLVTPGTPLTLTCTVSGFSLSSYAMGWFRQAPGKGLEWIGIINSYGSTYYASWAKGRFTISKTSTTVDLKITSPTTEDTATYFCGRRIGSARFDPWGPGTLVTVSS
VL: B2 VL with G24A, K25D, P26T, F31Y, V46L, S52R, Q98R, Y99L
notes: Fc-silenced (L234A/L235A/P329G) IgG1, lambda; Alexa Fluor 647-labeled in single-step flow cytometry; Prototype of cluster C-45
B4: HW-81 chimeric rabbit-human IgG1 LA/LA/PG (antibody, V domains shown)
VH: QKQLVESGGGLVTPGGTLTLTCTVSGFSLSSNGVSWVRQAPGKGLEYIGLIRSIGSTYYATWAKGRFTISKTSTTVDLKITSPTTEDTATYFCARGGYRNGFKLWGPGTLVTVSS
VL: QPVLTQSPSVSAALGASAKLTCTLSSAHKTYYIEWYQQQHPGKAPRYLMQLQSDGSYTKGTGVPDRFSGSSSGADRYLIISSVQAEDEADYICGVIDSAVYVFGGGTQLTVTG
notes: as for B2
B5: HW-16 chimeric rabbit-human IgG1 LA/LA/PG (antibody, V domains shown)
VH: QSLEESGGRLVTPGTPLTLTCTASGFSLSSYAMSWVRQAPGKGLEWIGTMPTGGGTYYASWAKGRFTISKTSTTVDLQITSPTTEDTATYFCAKHWNIWGPGTLVTISS
VL: DIVLTQTPSSTSTAVGDTVTINCRASQSIGRNLAWFQQKPGQPPKLLIYRASNLASGVPSRFKGSGSRTQFTLTISGVQREDAATYYCLGSYSSSDTAFGGGTELEILR
notes: as for B1
B6: HW-56 chimeric rabbit-human IgG1 LA/LA/PG (antibody, V domains shown)
VH: QSVKESEGGLFKPTDTLTLTCTASGFTVSTNAVTWVRQAPGNGLEYIGTIGRSGSAYFASWAKRRSTLTRDINLNTVTLKMTSLTAADTATYFCVRGSPGYRTAISIWGPGTLVTISS
VL: AVMTQTPSSTSAAVEGTVTINCQASQSISNRLSWFQQKPGQPPKLLIYQASTLASGVPSRFKGSGSGTEFTLTISGVQREDAATYYCLGSYSSSDASFGGGTKLEIKR
notes: as for B1

Key:
[1] = biological target: T1, GARS, endogenous in H929 multiple …; assay: flow cytometry, H929 + GARS siRNA (siRNA against the putative target); None 452
[2] = biological target: T1, GARS, endogenous in H929 multiple …; assay: flow cytometry, H929 + CADM1 siRNA; None 0.89; surface target GARS putative
[3] = biological target: T2, IL13RA1; assay: ELISA on coated IL13RA1-Fc-His
Procedure: Recombinant purified ECDs (50-150 ng) of each putative target protein were coated, incubated with 150 ng of the indicated primary antibody, and binding was detected using a peroxidase-conjugated anti-human Fab secondary antibody. Heatmap represents averages of technical triplicates. (8B) Target validation via siRNA knockdown. H929 cells were transfected with siRNA pools targeting the putative antibody targets ICAM1, CADM1, and PTPRG. Cells were then subjected to cognate IgG binding analysis via flow cytometry. (NT, non-targeting siRNA).
ELISA ELISA was conducted as described previously. Briefly, 50-150 ng of antigen was coated overnight in half-area 96-well plates at 4° C., blocked with 3% BSA at 37° C. for 1 h, and 150 ng of chimeric rabbit/human IgG1 was added, incubating for 2 h at 37° C. […] After incubating at 37° C. for 15 min-1 h (depending on intensity of controls), data were acquired using a SpectraMax M5 plate reader (Molecular Devices).

[4] = biological target: T1, GARS, endogenous in H929 multiple …; assay: flow cytometry, H929 + PTPRG siRNA; None 490; surface target GARS putative
[5] = biological target: T1, GARS, endogenous in H929 multiple …; assay: flow cytometry, H929 + ICAM1 siRNA; None 455; surface target GARS putative
[6] = biological target: T1, GARS, endogenous in H929 multiple …; assay: flow cytometry, H929 + CADM1 siRNA; None 449; surface target GARS putative

Binder | mAb binding (MFI) [1] | Cells stained (%) [2] | binding result [3] | mAb binding (MFI) [4] | mAb binding (MFI) [5] | mAb binding (MFI) [6]
B1 | 109000 | 89.3% | no binding (tested: 150 ng IgG1 per well) | 13600 | 11400 | 17000
B2 | 170000 | 98.5% |  | 41900 | 33900 | 66800
B3 | 76900 | 97% |  | 23200 | 20800 | 33400
B4 | 216000 | 99.8% | no binding (tested: 150 ng IgG1 per well) | 630000 | 640000 | 696000
B5 | 155000 | 99% |  | 41600 | 48900 | 45900
B6 | 413000 | 99.6% |  | 479000 | 497000 | 547000
